Experimental data reported in paper PMC9478400, “Identification and characterization of a novel hydroxylamine oxidase, DnfA, that catalyzes the oxidation of hydroxylamine to N2” (The Journal of Biological Chemistry, 2022).
Each block holds one molecule with its values, some of them ahead of it.

Experiments:
[1] = target: DnfA hydroxylamine oxidase of Alcaligenes ammonioxydans HO-1 (Alcaligenes ammonioxydans HO-1); assay: SEC; gel filtration of native DnfA on Superdex 200 Increase 10/300 GL; mobile phase 20 mM Tris-HCl, 150 mM NaCl, pH 8.0; UV absorbance at 280 nm
[2] = target: T1, DnfA (Alcaligenes ammonioxydans, UniProt A0ABX8SXK4); assay: isothermal titration calorimetry; assay type: binding; settings: 25 °C; hydroxylamine injected into enzyme
T1 construct: gene FE795_13025; full-length, 6xHis-tagged, pET-21a, E. coli BL21(DE3); dimer by gel filtration; diiron (residues Glu88, Glu123, His126, Glu182, His209, Glu213, His216)
T1 sequence (A0ABX8SXK4 1-317): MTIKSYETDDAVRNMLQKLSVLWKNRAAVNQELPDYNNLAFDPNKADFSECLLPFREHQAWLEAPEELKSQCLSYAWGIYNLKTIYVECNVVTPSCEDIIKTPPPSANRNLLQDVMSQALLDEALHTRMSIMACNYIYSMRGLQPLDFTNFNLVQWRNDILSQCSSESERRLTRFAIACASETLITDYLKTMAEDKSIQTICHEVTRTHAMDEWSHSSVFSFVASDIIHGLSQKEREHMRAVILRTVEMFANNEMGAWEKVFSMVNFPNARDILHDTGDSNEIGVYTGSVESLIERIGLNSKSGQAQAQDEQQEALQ

[3] = target: T1, DnfA; assay: differential scanning fluorimetry; assay type: binding; settings: 10 mM compound, 100 μg/ml DnfA, 20 mM Tris-HCl pH 8.0, SYPRO Orange
[4] = substrate: NO; assay: Michaelis-Menten, nonlinear regression, N2-forming hydroxylamine oxidation; assay type: biochemical, Alcaligenes ammonioxydans; settings: 10 μM DnfA, 100 μM FAD, 1 mM NADH, atmospheric O2, 15 to 400 μM NH2OH
Excerpt: Michaelis-Menten, nonlinear regression, N2-forming hydroxylamine oxidation on DnfA | the Michaelis–Menten constant (Km) for hydroxylamine

stoichiometry N [1]: 2
Molecule: DnfA hydroxylamine oxidase of Alcaligenes ammonioxydans HO-1 (enzyme)

Molecule: NO [hydroxylamine]
isothermal titration calorimetry [2]: none of them interacted with ammonia, but DnfA bound to hydroxylamine
differential scanning fluorimetry [3]: DSF test demonstrated also that DnfA bound hydroxylamine

B1: DnfA (Alcaligenes ammonioxydans) (protein)
chain: MTIKSYETDDAVRNMLQKLSVLWKNRAAVNQELPDYNNLAFDPNKADFSECLLPFREHQAWLEAPEELKSQCLSYAWGIYNLKTIYVECNVVTPSCEDIIKTPPPSANRNLLQDVMSQALLDEALHTRMSIMACNYIYSMRGLQPLDFTNFNLVQWRNDILSQCSSESERRLTRFAIACASETLITDYLKTMAEDKSIQTICHEVTRTHAMDEWSHSSVFSFVASDIIHGLSQKEREHMRAVILRTVEMFANNEMGAWEKVFSMVNFPNARDILHDTGDSNEIGVYTGSVESLIERIGLNSKSGQAQAQDEQQEALQ
notes: full-length, 6xHis-tagged, pET-21a, E. coli BL21(DE3); dimer by gel filtration; diiron (residues Glu88, Glu123, His126, Glu182, His209, Glu213, His216)
Km [4]: 92.9 ± 3.0 µM
kcat [4]: 0.028 ± 0.001 s⁻¹
